assay: soluble on expression in E. coli; label from the status in PepcDB or PDB records

Sequence	soluble on expression in E. coli
MLIPSKLSRPVRLEHTVVRERLLAKLSGANNYRLVLITSPAGYGKTTLISQWAAGKNDLGWFSLDEGDNQQERFASYLIAAIQQATGNHCAASEAMVQKRQYASLSSLFAQLFIELADWQRPLYLVIDDYHLINNPVIHDAMRFFLRHQPENMTLVVLSRNLPQLGIANLRVRDQLLEIGSQQLAFTHQEAKQFFDCRLTSPIEADDSSRLCDDVAGWATALQLIALSARQNNSSAQHSARRFAGINASHLSDYLVDEVLDNVDARTRNFLLKSSLLRSMNDALIVRVTGEENGQMQLEEIERQGLFLQRMDDSGEWFRYHPLFGSFLRQRCQWELAVELPEIHRAAAESWMAQGFPSEAIHHALAAGDAKMLRDILLNHAWGMFNHSELGLLEQSLAALPWSNLLENPRLILLQAWLMQSQHRYSEVNTLLARAEQEMSVEMDTAMHGDFNALRAQVAINDGDQDEAERLSMVALEELPLANYYSRIVATSVHGEVLHCKGKLTKSLAVMQQTEQMARRHDVWHYALWSIIQQSEILFAQGFLQAAW	not soluble
MLIRKITRKNPSPDVLEEAISVMEGGGIVIYPTDTIYGLGVNALDEDAVRRLFRVKGRSPHKPVSICVSCVDEIPRFSRPSGDAMELMERILPGPYTVVLERNELIPDVITGGSSRVGIRVPDDEICRRIAARFPVTATSANISGKPPSPRLEEIVRDLDAVDLVLDAGDCLDMEPSTVIDLTVNPPRVLRRGKGPLDPVLLRGAGDV	soluble
MLIRQAGPADNAQLLDFQQRHAMRGSMPLRFDRSPDYFALHHCHAADHRTWIAQSPEGELRGSASLVVRDGYLQGSAEPIAYLGDLRLMPDRRLSRSWMAEVQTRLADLSLQTGAQHAYCCIIRDNPLAIQSLLGRRRANPLKLAHWRGYSNVSVYGQRGLSSAPRTHAGVRVVRAEPRHLDALRAFLDSESSRQSFGCVFSETEFERRISHWPDFAIGSFLLAVDERENLLGCVAPWDAGKIKRIVVEQMPVAQQLLRMGYNAVAPLAGRPGIASPGNPLRDIYLTHLQVRQRDPEVFAALLDVAWAQVRKDYSLMQLCLYDQDPLWLAMRRYRSVSLPMDLYTAPCGSNTPVFTETCAAGVPGFEIYLV	not soluble
MLITISVARSENYYCVQVASSEKLEDLIPLFEKFKNMDNVRIEKIGGFYTLRIGFYLNKSDVLKILPEIKEKYRDAFVRVCEYDLSRVVFPKPEKVITLEQQEIEESKTTKENFLMLLEKNIEELKKLTEIIARGNTTKVKPFEKLESTVVEMYKQKEKSYKRAFPLYINGEFRYRGKALTGENLLGDKWYSYLGLKLSFFRRGFADFKYEKERAKFAKLFSEFDIQKEYTYLLAFQSQEEVFLKGLKYELGVVESEKNKTLSLLKDWVKFTESYDKSLGFPYRELIKKEELEGIESVSNGFFLKPMKINVEEFMKYYEKRKKDVEEYLKKFEIKTTDKWFYLRHTDLDVFARYYFAGKDGNTRDFWALGLRFELPIPYIITDLGKVDKLEILSFKERARLSYATTYSFLFDYISRINRNYSNIVNHLEQINVNFLEIEREIYFWKNGLREANYTLILRNLLDTYHRLEQLIYLKYINYVYIQKLIYFMDIKEEEIIRRILDG	not soluble
MLITKNQAEKWFDNSLGKQFNPDLFYGFQCYDYANMFFMIATGERLQGLYAYNIPFDNKARIEKYGQIIKNYDSFLPQKLDIVVFPSKYGGGAGHVEIVESANLNTFTSFGQNWNGKGWTNGVAQPGWGPETVTRHVHYYDDPMYFIRLNFPDKVSVGDKAKSVIKQATAKKQAVIKPKKIMLVAGHGYNDPGAVGNGTNERDFIRKYITPNIAKYLRHAGHEVALYGGSSQSQDMYQDTAYGVNVGNNKDYGLYWVKSQGYDIVLEIHLDAAGESASGGHVIISSQFNADTIDKSIQDVIKNNLGQIRGVTPRNDLLNVNVSAEININYRLSELGFITNKKDMDWIKKNYDLYSKLIAGAIHGKPIGGLVAGNVKTSAKNQKNPPVPAGYTPDKNNVPYKKETGYYTVANVKGNNVRDGYSTNSRITGVLPNNATIKYDGAYCINGYRWITYIANSGQRRYIATGEVDKAGNRISSFGKFSAVLEHHHHHH	not soluble
MLKCVMSGSQVKVFGKAVQALSRISDEFWLDPSKKGLALRCVNSSRSAYGCVLFSPVFFQHYQWSALVKMSENELDTTLHLKCKLGMKSILPIFRCLNSLERNIEKCRIFTRSDKCKVVIQFFYRHGIKRTHNICFQESQPLQVIFDKNVCTNTLMIQPRLLADAIVLFTSSQEEVTLAVTPLNFCLKSSNEESMDLSNAVHSEMFVGSDEFDFFQIGMDTEITFCFKELKGILTFSEATHAPISIYFDFPGKPLALSIDDMLVEANFILATLADEQSRASSPQSLCLSQKRKRSDLIEKKAGKNVTGQALECISKKAAPRRLYPKETLTNISALENCGSPAMKRVDGDVSEVSESSVSNTEEVPGSLCLRKFSCMFFGAVSSDQQEHFNHPFDSLARASDSEEDMNNGSFSIFLEHHHHHH	not soluble
MLKDEYGRVVTNLRIAVTKKCNLRCFYCHKEGESNPGEEISAERIVEIARAFKELGVRKLKITGGEPLLRKDLPDIILNLPEFEEISMTTNGILLEKYAEELRECGLSRVNVSLDTLDAEKYRWITGGGEVQKVVNGIEKACEVGLTPVKINMLVLGGVNDNEVDELLEFTNSFNRGNTKAILQVIELVPFPGFEKYFFDISTIEEKYARMATQRRVRAMHRRTQYFTPKGVIEFVKPMDNTAFCMHCNRMRVTSDGKLKPCLLRNETITIDGKHGEELARAIIETVRKREPYFKGLEHHHHHH	soluble
MLKIATFNVNSIRSRLHIVIPWLKENKPDILCMQETKVENRKFPEADFHRIGYHVVFSGSKGRNGVAIASLEEPEDVSFGLDSEPKDEDRLIRAKIAGIDVINTYVPQGFKIDSEKYQYKLQWLERLYHYLQKTVDFRSFAVWCGDMNVAPEPIDVHSPDKLKNHVCFHEDARRAYKKILELGFVDVLRKIHPNERIYTFYDYRVKGAIERGLGWRGDAILATPPLAERCVDCYADIKPRLAEKPSDHLPLVAVFDV	soluble
MLKIGIVGCGAIGNFITKKVLDGTIKNAKISAVYDRNFDKAKTLSERTGAKICSSIDDLVKEDLDLVVEAASIKAVEEIAEKSLINNKDVLIMSVGALADKKLFLKLRDLAKTVGRKIYLPSGAIGGLDAIKALRLGEIEEVVLKTTKPVAALEDALKNLGYKPEDIKNPVIVFEGDVFKAIKEFPANINVSVTLSIAAEFPAKVVIVADPNAKLNKHELFVKSSIGTLRVCIENVPFEENPRTSALAAYSAVRLIRDLAEPVKVGT	soluble
MLKIQAYFNETADLPCQFANSQNQSLSELVVFWQDQENLVLNEVYLGKEKFDSVHSKYMGRTSFDSDSWTLRLHNLQIKDKGLYQCIIHHKKPTGMIRIHQMNSELSVLA	soluble
MLKKHLTTQLFQKKKKKKLHLVLDLDHTLLHSVLVSDLSKREKYLLEETDSRQDLWRRNVDGYEFIIKLRPFLHEFLLEANKLFTMHVYTMGSSSYAKQVLKLIDPDKVYFGKRVITREASPFNKSLDLLAADKRRVVIVDDTVHVWPFHKRNLLQITKYVYFKVDGTKWDSYAEAKKDESQSNGSLANVLKFLEDVHKRFEEDLGFKDLRLLIPCRQCCY	soluble
MLKNTYIHIPGVGKALEQKIWASGIHTWDEFLEMEDRVLIPSVKKARICEGIKVSSSHLAAKDCFFFSQRLPSAEHWRAYSLFSDSVAFFDIETTGLSPCRDKITVVGIYNGNEVKTYVRGTNLEDLVEEFSRYRLLVSFNGARFDIPFIKSEFPEIEFKQLHIDLMYPLRRIGYGGGLKKIEKLLGICRSEDTDGMDGFDAVRLWKKYEKGDLEALNLLVKYNREDIVNLKTIIELTYPKMVENALKILEHHHHHH	not soluble
MLKYSNHMAFKDLREYIEFMKKKGKLIEVDDEVSVDLEIAEITRKATYAHLPPLLFKRVKNYENWKIVSNIFYSIESLYEIFGTNKLESISEGFLSNLSNMPITFFDKIKSLREILGLGKVMPKAKSPSFKEEKNLDLTKIPAIKTWPKDAGRYLTFSITITKDPETDVHNLSVYRVQILNEKEAIIHWQAFKRGALTAKKYLEKGISKIPIAVVTGVDPAIAFTAASPVPHGIDKYMFAGILRGEGIDVAELDNQLLVPSHSEVVLTGYVDLNDMRLEGPFGDHMGYYTPADYYPVFKLERVYIREDPIFHVTSVGKPPLEDAWIGKAVERIFLPFAKMLVPELIDMNLPEYGLFTGIGIFSIKKYYPGQAKRVMMALWGTGQLSLLKIIIVVDQDIDVHDINQVIYAIAANVDPKRDVWVIENALTDSLDPSVPFPPLGSKLGIDATRKFKEEMGKEWPEEVRSDEVVAKKADQILNKIIKRYQTSLEHHHHHH	not soluble
MLLAHISDTHFRSRGEKLYGFIDVNAANADVVSQLNALRERPDAVVVSGDIVNCGRPEEYQVARQILGSLNYPLYLIPGNHDDKALFLEYLQPLCPQLGSDANNMRCAVDDFATRLLFIDSSRAGTSKGWLTDETISWLEAQLFEGGDKPATIFMHHPPLPLGNAQMDPIACENGHRLLALVERFPSLTRIFCGHNHSLTMTQYRQALISTLPGTVHQVPYCHEDTDPYYDLSPASCLMHRQVGEQWVSYQHSLAHYAGPWLYDENISCPTEER	soluble
MLLKPEEYIERLGEYKRDIYVLGKKIEDFVNHPNIRPTVEAMAYTYSIAEKYAPHSELVGEKVNRLNYVNQTFEDLIARYDYQRELSLKLATCNYRCTGCDAINAIYPATKALDEREGTDYHRRFLELLKEIQKKDYACTAALTDVKGDRGKRPSEQKDKYLRVVEKREDGIVVRGAKICQSGAFAADVNFVLPTQTFRPGEEEFAVVFAAMPEDEGIKYILQNTGIQAKQREGGKFEAGNKYGDRTTCMVVFDDVFIPWERVFVFEDLKAARDVVSYFAPSHRCVGAACKAGFIDSMAGAASLMLKTSGLENVSALQQKVAEMVAVSEGAFAISVGAAVKGANHNGCWLPNFQMANSGKVIGVEGFAKALMNLIDISGGIIGTSPSEFDLEMVGDFLRASEKFTAEQRLKIVKFIEFWTTSSHLVGAFHGGGSPTAALITLRFLMDLSSREEAVKNCIDF	not soluble
MLLKSHHSGGRKTRFLTVLDVGSSKIVCLIACLRPLKHAHYLHGRTHSMEILGFGVQRSRGIKSGVVMDIFAAEQSIRLAVDAAEKMAGLVVDSVIVNFSSSRLQSALINGVVSLNGREVTKRDIRVAFADVSRKAFNAERHVVHSVPVSYVLDGDKGISDPVGMIGDFFGVDVHVVTAETAALRNLETCINRAHLSVEAMVVTPFASGLAVLMNDEAHLGAACIDFGGGTTTFSVFSEGKFVHANALAVGGHHVTLDVARGFSMSLPEAERLKVVYGSALVTSADERHMVNVTEIGNEHREIQYPRAVLGRIIRARVEEILEMVRDCLNRSGFGHIIGKRVILTGGASQLTGLPEMARTILGRNVRIGRPLGISRLPSLAKGAAFTSAVGLLIYPQLVGFEEKTMQVAVNHLSTGTRGYFQRVGQWLRESF	not soluble
MLLNEASDAIYWVNHKGLITYANPSAQILFGYEEVELKDKSISDLIVSKTDLFSTFSSNIIEEKGVVIQQEFVRKDNSTFYGEMSVRLFDDGSHQAIIRDITKGVIEQRLLLDRERKFKILVENAFDIIIVLSSDFKIKFISPAIKKMLGYEIDSVLGENSNKFIEFRDRVMIKEVLKNHGITYAINDLKLIHKNGQIIHCEVNAVNFLNDPLINGIIVNCHDISKRIQTENELINTNYELDSFVYKVSHDLKAPLRSMLGLINLSQKENTEDTVKLYLDMMVRSIHNMDIFIKDLTQFSRNSRMEVIKESIDFKELITKIENNLKYDDNARFISFERNISQQSLFYSDPNRVETIVSNLLSNAYKYHRFDSNNPYINVKIEVSETAACIVIKDNGSGIADEYHNKIFQMFFRASEKSQGSGLGLYIVKSAIDKLEGTITLHSIPDKESTFTVEIPNLLTR	not soluble

From the DeepSol protein solubility set
